Assay results reported in US20230266324A1 (Hoffmann-La Roche, published 2023).

Molecular target: T1, PD-L1 (human, UniProt Q9NZQ7 19-290)
T1 construct: whole, on cells; Endogenous PD-L1 on in vitro generated human DCs (iDCs, mDCs); also called B7-H1; B7-4
Assay: confocal imaging of co-localization on the surface of human mDCs

T1 sequence (Q9NZQ7 19-290): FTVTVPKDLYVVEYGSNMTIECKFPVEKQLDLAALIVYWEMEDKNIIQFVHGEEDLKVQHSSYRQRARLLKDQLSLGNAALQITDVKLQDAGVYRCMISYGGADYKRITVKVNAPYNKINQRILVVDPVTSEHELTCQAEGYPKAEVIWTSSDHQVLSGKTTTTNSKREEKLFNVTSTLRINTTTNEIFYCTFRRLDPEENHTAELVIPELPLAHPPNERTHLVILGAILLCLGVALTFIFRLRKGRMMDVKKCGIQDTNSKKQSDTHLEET

binding result: binds
B1: CD80 (ligand, human, UniProt P33681 35-288, looked up)
chain: VIHVTKEVKEVATLSCGHNVSVEELAQTRIYWQKEKKMVLTMMSGDMNIWPEYKNRTIFDITNNLSIVILALRPSDEGTYECVVLKYEKDAFKREHLAEVTLSVKADFPTPSISDFEIPTSNIRRIICSTSGGFPEPHLSWLENGEELNAINTTVSQDPETELYAVSSKLDFNMTTNHSFMCLIKYGHLRVNQTFNWNTTKQEHFPDNLLPSWAITLISVNGIFVICCLTYCFAPRCRERRRNERLRRESVRPV
notes: whole, on cells; Endogenous CD80 on human DCs, seen by confocal imaging; also called B7-1; B7.1
